Data reported in paper PMC3784475 (PLoS Pathogens, 2013).

Legend:
[1] = biological target: HIV gp140 SF162 trimers (HIV (isolate SF162)); assay: SPR; HIV gp140 SF162 trimers amine-coupled on a CM5 chip (3250 RU); HCDR3-grafted Ubq fusions injected at 1 µM and 5 or 10 µM; HBS-EP+ (10 mM HEPES pH 7.4, 150 mM NaCl, 3 mM EDTA, 0.05% P20); 25°C; duplicate runs
Strep-tagged Scn control = biological target: T1, Strep-tagged Scn control (Homo sapiens, UniProt P80188); assay: SPR; about 3000 RU of each Scn-peptide fusion or Strep-tagged Scn control amine-coupled on CM5 chips; 4E10 IgG injected at 300 nM in HBS-EP+ or HBS-EP+ at 500 mM NaCl; 25°C; responses normalised by specific activity; conditions: both partners purified
T1 construct: siderocalin (Scn), human; also called siderocalin construct minus peptide; not shown: Strep-tag, C-terminal, kept

| Molecule | Kd [1] [µM] | binding result (Strep-tagged Scn control) |
| --- | --- | --- |
| 4E10 HCDR3-grafted ubiquitin fusion (designed binder) | > 10 |  |
| 2F5 HCDR3-grafted ubiquitin fusion (designed binder) | > 10 |  |
| b12 HCDR3-grafted ubiquitin fusion (designed binder) | > 10 |  |
| 4E10 IgG (antibody, V domains shown, variable domain in PDB 4LLV (4E10 Fv, solved here), 2FX7 (4E10 Fab) and 3H3P; IgG, the bivalent form; also called bNAb 4E10; Polymun AB004; source: bought: Polymun Scientific; copies: 2 + 2) VH: QVQLVQSGAEVKRPGSSVTVSCKASGGSFSTYALSWVRQAPGRGLEWMGGVIPLLTITNYAPRFQGRITITADRSTSTAYLELNSLRPEDTAVYYCAREGTTGWGWLGKPIGAFAHWGQGTLVTVSS VL: EIVLTQSPGTQSLSPGERATLSCRASQSVGNNKLAWYQQRPGQAPRLLIYGASSRPSGVADRFSGSGSGTDFTLTISRLEPEDFAVYYCQQYGQSLSTFGQGTKVEVK |  | no binding (tested: 300 nM) |
